Test results reported in paper PMC7380489.

Target: human TRIM28 N-terminal RBCC domain (human)
Test: SEC-MALS + other: SEC-SAXS + AUC

- stoichiometry N: 3
Substance: human TRIM28 N-terminal RBCC domain (domain or fragment)
